Results published in patent publication US7740882B2, “Enhanced oral and transcompartmental delivery of therapeutic or diagnostic agents” (priority 2001, dated 2010).
“Also recorded” adds a separate entry of the source. Read-outs that look alike come from different tables or passages of the source.

What was measured:
[1] = target: T1, SMVT (Homo sapiens, UniProt Q9Y289); experiment: Inhibition of substrate uptake in CHO/hSMVT cells by 50 μM SMVT substrates; assay type: in vitro ADME; set-up: expressed in transfected cells; host or cells: CHO cells (ATCC), transient Lipofectamine transfection; plasmid was a gift of Dr. Puttur D. Prasad; conditions: for inhibition of RI-K(biotin)-Tat9 uptake: 0.1 μM RI-K(biotin)-Tat9, inhibitor 50 μM; for inhibition of biotin-PEG-3400 uptake: 0.1 μM biotin-PEG-3400, inhibitor 50 μM; for inhibition of PEG:(RI-K(biotin)-Tat9)8 uptake: 0.1 μM conjugate, inhibitor 50 μM
T1 sequence (Q9Y289 1-635): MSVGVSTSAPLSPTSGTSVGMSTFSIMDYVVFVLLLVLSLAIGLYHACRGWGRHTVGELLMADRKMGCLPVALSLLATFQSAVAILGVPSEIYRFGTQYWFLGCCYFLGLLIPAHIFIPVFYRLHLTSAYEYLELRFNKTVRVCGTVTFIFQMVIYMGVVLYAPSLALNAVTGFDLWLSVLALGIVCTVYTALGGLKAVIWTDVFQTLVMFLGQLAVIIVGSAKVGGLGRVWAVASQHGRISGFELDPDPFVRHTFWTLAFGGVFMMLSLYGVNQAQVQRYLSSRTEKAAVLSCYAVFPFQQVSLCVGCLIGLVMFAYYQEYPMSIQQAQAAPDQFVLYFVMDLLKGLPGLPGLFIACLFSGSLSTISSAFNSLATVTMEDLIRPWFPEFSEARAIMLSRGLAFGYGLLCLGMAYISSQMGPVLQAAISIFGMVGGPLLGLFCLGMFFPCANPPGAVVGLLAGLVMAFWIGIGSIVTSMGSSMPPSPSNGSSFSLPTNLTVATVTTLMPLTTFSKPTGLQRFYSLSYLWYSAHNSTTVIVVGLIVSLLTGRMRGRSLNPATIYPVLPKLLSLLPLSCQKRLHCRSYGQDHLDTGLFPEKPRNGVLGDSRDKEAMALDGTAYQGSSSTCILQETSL

[2] = target: T2, SMVT in BBMECs (Bos taurus, UniProt A1L530); experiment: Biotin uptake by BBMECs (characterization of biotin transporter); assay type: in vitro ADME, bovine
T2 construct: endogenous in cells; host or cells: primary bovine brain microvessel endothelial cells (BBMECs)
T2 sequence (A1L530 1-638): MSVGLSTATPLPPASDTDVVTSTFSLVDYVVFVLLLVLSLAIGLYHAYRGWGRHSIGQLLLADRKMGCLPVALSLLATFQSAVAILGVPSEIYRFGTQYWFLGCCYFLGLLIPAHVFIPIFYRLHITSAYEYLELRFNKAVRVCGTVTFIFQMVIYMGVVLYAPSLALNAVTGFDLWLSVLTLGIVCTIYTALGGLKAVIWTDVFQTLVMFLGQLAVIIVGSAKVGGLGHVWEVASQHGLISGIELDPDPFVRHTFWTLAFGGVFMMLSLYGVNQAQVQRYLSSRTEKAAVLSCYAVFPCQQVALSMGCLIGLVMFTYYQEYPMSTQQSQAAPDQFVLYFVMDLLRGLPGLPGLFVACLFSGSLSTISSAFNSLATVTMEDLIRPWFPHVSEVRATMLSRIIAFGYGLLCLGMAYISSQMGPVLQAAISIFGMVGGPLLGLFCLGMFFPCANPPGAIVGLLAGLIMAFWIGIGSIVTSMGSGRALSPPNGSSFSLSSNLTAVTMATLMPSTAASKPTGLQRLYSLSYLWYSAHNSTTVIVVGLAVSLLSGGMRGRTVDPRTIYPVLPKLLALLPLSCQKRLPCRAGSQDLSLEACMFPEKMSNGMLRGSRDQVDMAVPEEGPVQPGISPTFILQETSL

[3] = tested on: Caco-2 cell monolayers; experiment: Absorptive (AP to BL) transport across Caco-2 cell monolayers; conditions: Caco-2 AP to BL
Experimental: (§1) Caco-2 Cell Transport Studies An Ussing-type diffusion chamber system (Harvard Apparatus, Natick, Mass.) was used to perform transport studies. The apical solution was a MES Ringer's buffer (pH 6.5) consisting of 114.0 mM NaCl, 5.0 mM KCl, 1.1 mM MgSO4, 1.25 mM CaSO4, and 15 mM 2-(N-morpholino)ethanesulfonic acid (MES). The basolateral solution was a Ringer's buffer (pH 7.4) consisting of 114.0 mM NaCl, 5.0 mM KCl, 1.65 mM Na2HPO4, 0.3 mM NaH2PO4, 25 mM NaHCO3, 1.1 mM MgSO4, and 1.25 mM CaSO4. Both buffers contained 25 mM glucose and were adjusted to 290 mOsm/kg using a vapor pressure osmometer (Wescor Inc, Logan, Utah). For transport experiments using filters with cell monolayers, the inserts were rinsed with Ringer's buffet containing 25 mM glucose three times over a 20 min period at room temperature. The TEER was measured for each monolayer before it was mounted onto the diffusion chamber, which was pre-warmed to 37° C. by placement on the heating blocks. The volume of each half-chamber was 5 ml and the surface area of the Snapwell™ filters available for drug transport was 1 cm^2. […] The donor solution consisted of radiolabeled permeant in the apical buffer [apical (AP) to basolateral (BL) study]. Starting at 30 min, samples were taken from the receptor chamber every 15 min until the end of the experiment (105 min). A minimum of three monolayers was used to determine the permeability of test compound in each study and sample analysis was performed using scintillation counting (Perkin Elmer, Gaithersburg, Md.).
(§2) The Michaelis-Menten kinetic parameters of Caco-2 and CHO cell transport were then estimated using non-linear regression.
(§3) Prior to experimentation, diffusion chambers mounted with the Snapwells™ containing Caco-2 cells were equilibrated at 5° C., 10° C., 15° C., 25° C. and 37° C.
(§4) [formula] where Pe is the effective permeability of the substrate transported, Cs is the substrate concentration and Pm and Pc represent the passive and carrier-mediated component of the permeability. All data were initially fitted to a 3-parameter model (Pc, Pm, Km for Caco-2 studies, Jmax, Pm, Km for CHO studies).
(§5) Caco-2 Cell Transport Studies An Ussing-type diffusion chamber system (Harvard Apparatus, Natick, Mass.) was used to perform transport studies. The apical solution was a MES Ringer's buffer (pH 6.5) consisting of 114.0 mM NaCl, 5.0 mM KCl, 1.1 mM MgSO4, 1.25 mM CaSO4, and 15 mM 2-(N-morpholino)ethanesulfonic acid (MES). The basolateral solution was a Ringer's buffer (pH 7.4) consisting of 114.0 mM NaCl, 5.0 mM KCl, 1.65 mM Na2HPO4, 0.3 mM NaH2PO4, 25 mM NaHCO3, 1.1 mM MgSO4, and 1.25 mM CaSO4. Both buffers contained 25 mM glucose and were adjusted to 290 mOsm/kg using a vapor pressure osmometer (Wescor Inc, Logan, Utah). For transport experiments using filters with cell monolayers, the inserts were rinsed with Ringer's buffer containing 25 mM glucose three times over a 20 min period at room temperature. The TEER was measured for each monolayer before it was mounted onto the diffusion chamber, which was pre-warned to 37° C. by placement on the heating blocks.

[4] = in vitro; conditions: human, Caco-2
Experimental: as §1, §2, §3, §4, §5

[5] = target: T3, fMLF receptor on differentiated HL-60 cells (Homo sapiens, UniProt P21462); experiment: Competitive receptor binding assay with fML[3H]F; conditions: for Avidity Activation EC50/Kd: ratio of EC50 (calcium) to Kd
T3 construct: endogenous in cells; host or cells: HL-60 cells differentiated with 1.3% DMSO for 48 h; whole cells
T3 sequence (P21462 1-350): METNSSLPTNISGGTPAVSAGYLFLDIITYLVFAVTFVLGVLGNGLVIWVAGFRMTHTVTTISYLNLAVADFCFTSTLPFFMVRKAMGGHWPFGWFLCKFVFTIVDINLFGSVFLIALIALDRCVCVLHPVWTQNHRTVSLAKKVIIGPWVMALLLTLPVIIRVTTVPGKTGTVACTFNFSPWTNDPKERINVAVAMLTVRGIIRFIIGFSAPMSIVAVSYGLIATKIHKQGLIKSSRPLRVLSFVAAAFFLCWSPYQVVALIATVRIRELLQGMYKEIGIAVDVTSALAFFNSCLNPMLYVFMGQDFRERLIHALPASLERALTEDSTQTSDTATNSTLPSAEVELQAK

[6] = tested on: differentiated HL-60 cells; experiment: Intracellular calcium assay (45Ca release from intracellular stores); assay type: cell-based, human; conditions: for EC50: differentiated HL-60 cells, calcium release, read-out: Cell Activation EC50
Experimental: Intracellular Calcium Assay. HL-60 cells (2×10^5 cells/mL) were grown in the presence of 1.3% DMSO for 5 days. For each time course experiment, 2×10^6 cells were resuspended in 5 mL of HBSS containing 2 mCi/mL of ^45CaCl2 as the sole source of calcium. After 90 min incubation at 37° C., cells were washed twice as above with cold HBSS. […] Cell pellets were treated with 0.5% Triton X-100/0.1 M NaOH and centrifuged in tubes containing 0.3 mL of 10% sucrose and radioactivity associated with the pellets was measured; this represents vesicle-associated ^45Ca. The top portion of the tube, which contained the cytoplasmic ^45Ca was also measured.

[7] = substrate: O=C(O)CCCC[C@@H]1SC[C@@H]2NC(=O)N[C@@H]21; experiment: cells, lysate or membranes named; conditions: 37° C.
[8] = Kd multiplied by average number of fMLF moieties, read-out: Relative Avidity Kd/fMLP
[9] = differentiated HL-60 cells, competition with fML[3H]F, read-out: Avidity Kd

## C[C@@H]1NC(=O)N[C@@H]1CCCCCC(=O)O [desthiobiotin]
[1]
  inhibition of RI-K(biotin)-Tat9 uptake: significantly inhibited; also recorded: significantly lowered (p<0.001)
  inhibition of biotin-PEG-3400 uptake: significantly (p<0.01) inhibited
  inhibition of PEG:(RI-K(biotin)-Tat9)8 uptake: significantly lower (p<0.05)
[2]
  inhibition of biotin uptake: inhibited the uptake of biotin significantly

## N[C@@H]1[C@H](CCCCC(=O)O)SC[C@@H]1N [diaminobiotin]
[2]
  inhibition of biotin uptake: very weak

## N=C1N[C@H]2[C@H](CS[C@H]2CCCCC(=O)O)N1 [iminobiotin]
[2]
  inhibition of biotin uptake: very weak

## OC[C@@H](O)[C@@H](O)[C@H](O)[C@H](O)CO [mannitol]
[3]
  absorptive/effective permeability (Pe): 1.42 (±0.28)×10^−6 cm/sec
[4]
  Papp A→B at 105 min: 2.12 ×10⁻⁶ cm/s

## CC(C)(CO)[C@@H](O)C(=O)NCCC(=O)O [pantothenic acid]
[1]
  inhibition of RI-K(biotin)-Tat9 uptake: significantly inhibited
  inhibition of biotin-PEG-3400 uptake: significantly (p<0.01) inhibited
  inhibition of PEG:(RI-K(biotin)-Tat9)8 uptake: significantly lower (p<0.05)
[2]
  inhibition of biotin uptake: inhibited the uptake of biotin significantly

## B3-PEG-fMLF3: 3-arm branched amino-PEG fully coupled with fMLF
[5]; [8]
  Kd: 5.7 nM
[5]; [9]
  Kd: 1.9 nM
[5]
  Avidity Activation EC50/Kd: 5.05
[6]
  EC50: 9.6 nM

## B4-PEG-fMLF4: 4-arm branched amino-PEG fully coupled with fMLF
[5]; [8]
  Kd: 3.2 nM
[5]; [9]
  Kd: 0.8 nM
[5]
  Avidity Activation EC50/Kd: 6.25
[6]
  EC50: 5 nM

## B8-PEG-fMLF1.1: 8-arm branched amino-PEG with on average 1.1 fMLF residues per polymer
[5]; [8]
  Kd: 209 nM
[5]; [9]
  Kd: 190 nM
[6]; even at 100 nM polymer
  calcium flux: virtually no flux of calcium

## B8-PEG-fMLF5.5: 8-arm branched amino-PEG with on average 5.5 fMLF residues per polymer
[5]; [8]
  Kd: 2.75 nM
[5]; [9]
  Kd: 0.5 nM
[5]
  Avidity Activation EC50/Kd: 10.6
[6]
  EC50: 5.3 nM

## B8-PEG-fMLF8: 8-arm branched amino-PEG with 8 fMLF residues per polymer
[5]
  increase in avidity over B8-PEG-fMLF1.1: more than 1000 fold
  Avidity Activation EC50/Kd: 27.8
[5]; [8]
  Kd: 1.44 nM
[5]; at 1 nM
  fMLF receptors occupied: ~100%
[5]; [9]
  Kd: 0.18 nM
[6]; at 1 nM
  cellular activation: little or no cellular activation
[6]
  EC50: 5 nM

## PEG/A-fMLF4: linear PEG-aspartate copolymer (29 kDa) with four fMLF residues
[5]; [8]
  Kd: 4.4 nM
[5]; [9]
  Kd: 1.1 nM

B1: SMVT in BBMECs (Bos taurus) (protein)
chain: T2 sequence (A1L530 1-638)
[7]; other: BBMECs
  Km: 54.6 µM

B2: human sodium dependent multivitamin transporter, hSMVT (Homo sapiens) (protein)
chain: T1 sequence (Q9Y289 1-635)
[7]; other: uptake in CHO/hSMVT cells, 10 min, pH 7.5
  Km: 1.39 (0.59) μM
